Results from the supplement of paper PMC7877785.
± gives the uncertainty stated by the source.

Test: self-splicing fitness, log relative to wild type (ln ratio); higher = more splicing; Tetrahymena group I intron in knt gene, E. coli kanamycin selection, DiMSum; sequences stand for … in CUCUCU…GGAGGGAAAAGUUAUCAGGCAUGCACCUGGUAGCUAGUCUUUAAACCAAUAGAUUGCAUCGGUUUAAAAGGCAAGACCGUCAAAUUGCGGGAAAGGGGUCAACAGCCGUUCAGUACCAAGUCUCAGGGGAAACUUUGAGAUGGCCUUGCAAAGGGUAUGGUAAUAAGCUGACGGACAUGGUCCUAACCACGCAGCCAAGUCCUAAGUCAACAGAUCUUCUGUUGAUAUGGAUGCAGUUCACAGACUAAAUGUCGGUCGGGGAAGAUGUAUUCUUCUCAUAAGAUAUAGUCGGACCUCUCCUUAAUGGGAGCUAGCGGAUGAAGUGAUGCAACACUGGAGCCGCUGGGAACUAAUUUGUAUGCGAAAGUAUAUUGAUUAGUUUUGGAGUACUCGUGGUCG
Summary of the method: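 Fitness was computed with DiMSum as the error-weighted combination of replicate fold changes, kanamycin versus none, each normalised to wild type. The library randomised all eight intron nucleotides of the P1ex region, with the intron placed in the knt kanamycin-resistance gene on pET-22b(+) in E. coli BL21(DE3). Six replicate transformations were grown overnight at 37°C or 30°C on LB agar with or without 25 μg/mL kanamycin, plus 100 μg/mL carbenicillin, 50 μM IPTG and 0.2% rhamnose. Pooled colonies were amplicon-sequenced on an Illumina HiSeq 2500.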

Sequence	self-splicing fitness (ln) (30 °C)	self-splicing fitness (ln) (37 °C)
UUGUAGCAAUAUUACGACGU	-1.48 ± 0.09	-0.671 ± 0.12
CACGAGCAAUAUUACGGUAG	-2.41 ± 0.12	-2.18 ± 0.14
ACGCAGCAAUAUUACGGUAG	-3.56 ± 0.17	-2.94 ± 0.19
CCUCAGCAAUAUUACGCGUA	-2.71 ± 0.21	-3.37 ± 0.28
CCAAAGCAAUAUUACGCGCG	-1.59 ± 0.075	-0.994 ± 0.1
AACGAGCAAUAUUACGUGAG	-3.58 ± 0.17	-0.98 ± 0.13
CGACAGCAAUAUUACGUAAG	-0.425 ± 0.08	0.126 ± 0.095
GUCUAGCAAUAUUACGUGUA	-0.862 ± 0.084	-0.516 ± 0.086
CCGCAGCAAUAUUACGUUGU	-3.23 ± 0.16	-3.8 ± 0.26
CACAAGCAAUAUUACGUCGU	-3.56 ± 0.13	-1.96 ± 0.11
CUGCAGCAAUAUUACGGAAU	-5.11 ± 0.45	-2.74 ± 0.32
ACCAAGCAAUAUUACGAUUU	-1.51 ± 0.041	-1.26 ± 0.054
UGAUAGCAAUAUUACGAGAG	-3.29 ± 0.43	-1.65 ± 0.18
CUGCAGCAAUAUUACGGUUC	-3.41 ± 0.1	-2.48 ± 0.13
AGGCAGCAAUAUUACGAGCU	-0.501 ± 0.1	-0.299 ± 0.13
AUUAAGCAAUAUUACGGUUC	-3.04 ± 0.35	-0.609 ± 0.31
CCCGAGCAAUAUUACGUAGG	-2.04 ± 0.11	-1.16 ± 0.14
AAGAAGCAAUAUUACGAAGU	-2.48 ± 0.16	-2.12 ± 0.21
GAUCAGCAAUAUUACGCUCU	-1.3 ± 0.12	-0.735 ± 0.15
ACGAAGCAAUAUUACGUAUU	-3.11 ± 0.087	-2.18 ± 0.093
CUACAGCAAUAUUACGCGGA	-3.06 ± 0.25	-3 ± 0.27
UCCGAGCAAUAUUACGGGCC	-3.8 ± 0.3	-2.94 ± 0.35
GACGAGCAAUAUUACGGACC	-1.34 ± 0.34	-0.304 ± 0.33
GGGAAGCAAUAUUACGUUGC	-3.92 ± 0.42	
AAUAAGCAAUAUUACGAUUC	-2.44 ± 0.12	-1.13 ± 0.15
CCUUAGCAAUAUUACGUGGG	-2.78 ± 0.16	-2.35 ± 0.16

Sequence	self-splicing fitness (ln) (30 °C)	self-splicing fitness (ln) (37 °C)
GUACAGCAAUAUUACGGAAG	-1.45 ± 0.11	-3.01 ± 0.25
GAAAAGCAAUAUUACGGGUU	-1.27 ± 0.095	-1.22 ± 0.12
ACUAAGCAAUAUUACGCUGC	-2.57 ± 0.15	-2.17 ± 0.14
AGGCAGCAAUAUUACGAAGU	-2.32 ± 0.1	-0.471 ± 0.098
ACCGAGCAAUAUUACGCCAA		-2.01 ± 0.3
GGUGAGCAAUAUUACGGUUA	-2.58 ± 0.22	-1.85 ± 0.17
GCCUAGCAAUAUUACGAUCA	-2.27 ± 0.27	-2.22 ± 0.18
GUUAAGCAAUAUUACGCGAA	-2.09 ± 0.21	0.0507 ± 0.2
UCAAAGCAAUAUUACGGCUC		-0.154 ± 0.2
CGCUAGCAAUAUUACGUAUU	-3.85 ± 0.21	-1.9 ± 0.18
AAGCAGCAAUAUUACGUGAC	-3.33 ± 0.14	-2.38 ± 0.18
UCCUAGCAAUAUUACGAGCG	-1.5 ± 0.099	-1.15 ± 0.14
UUAUAGCAAUAUUACGAUAA	-0.51 ± 0.11	-0.0656 ± 0.12
UCGCAGCAAUAUUACGUGGC	-3.81 ± 0.42	-2.45 ± 0.31
GGUCAGCAAUAUUACGUGGA	-1.82 ± 0.14	-1.58 ± 0.14
UUUCAGCAAUAUUACGCUCG	0.0268 ± 0.097	0.385 ± 0.15
CUAUAGCAAUAUUACGUACA	-2.36 ± 0.17	-2.05 ± 0.2
UAUUAGCAAUAUUACGUGUU	-3.04 ± 0.29	-2.86 ± 0.32
CCGCAGCAAUAUUACGCGUG	-2.75 ± 0.15	-2.38 ± 0.17
UUCAAGCAAUAUUACGGUCU	-2.89 ± 0.16	-1.97 ± 0.16
ACCUAGCAAUAUUACGACGU	-0.142 ± 0.071	0.371 ± 0.084
UUUAAGCAAUAUUACGGUUC	-3.56 ± 0.21	-2.47 ± 0.2
AGUAAGCAAUAUUACGAGGC	-2.59 ± 0.34	
GUAAAGCAAUAUUACGCCGC	-2.48 ± 0.3	-1.92 ± 0.35
UUACAGCAAUAUUACGGUCA	-0.595 ± 0.075	-0.209 ± 0.088
ACUUAGCAAUAUUACGUGGA	-2.47 ± 0.13	-2.7 ± 0.16

Sequence	self-splicing fitness (ln) (30 °C)	self-splicing fitness (ln) (37 °C)
CCGGAGCAAUAUUACGCUUC	-2.55 ± 0.24	-0.412 ± 0.19
CGGAAGCAAUAUUACGUGUA	-3.19 ± 0.17	-3.6 ± 0.27
ACUUAGCAAUAUUACGAAUA		-1.76 ± 0.31
AGCAAGCAAUAUUACGCCCC	0.415 ± 0.15	-0.728 ± 0.18
GCCAAGCAAUAUUACGGGUG	-0.544 ± 0.049	-0.591 ± 0.057
AAGCAGCAAUAUUACGCUGA	-3.07 ± 0.11	-1.98 ± 0.11
UUGAAGCAAUAUUACGCUUC	-2.86 ± 0.49	-2.06 ± 0.39
CAAGAGCAAUAUUACGCACC	-3.75 ± 0.35	
CCAGAGCAAUAUUACGGCGA	-3.16 ± 0.26	-2.65 ± 0.29
GAAUAGCAAUAUUACGGCAU	-0.386 ± 0.065	-0.0278 ± 0.083
CCCAAGCAAUAUUACGAUGG	-2.89 ± 0.13	-1.99 ± 0.13
AUACAGCAAUAUUACGCACG	-2.13 ± 0.12	-0.772 ± 0.15
AGAUAGCAAUAUUACGGGGC	-2.65 ± 0.2	-3.29 ± 0.37
ACGCAGCAAUAUUACGACCC	-1.66 ± 0.18	-0.0893 ± 0.28
GGUCAGCAAUAUUACGCCUU	-0.559 ± 0.051	0.122 ± 0.069
UCACAGCAAUAUUACGAACC	-1.05 ± 0.33	-1.68 ± 0.34
GUUUAGCAAUAUUACGGUGU	-1.95 ± 0.14	-1.38 ± 0.13
AGAAAGCAAUAUUACGCCCG	-0.679 ± 0.19	-0.0334 ± 0.19
AUACAGCAAUAUUACGGCUA	0.0244 ± 0.072	0.138 ± 0.082
GGUUAGCAAUAUUACGAUCU	-1.04 ± 0.24	-0.76 ± 0.24
AUAGAGCAAUAUUACGGCUC	-0.971 ± 0.11	-0.403 ± 0.23
UUGGAGCAAUAUUACGGAGC	-1.47 ± 0.38	
UAUUAGCAAUAUUACGUGUG	-0.846 ± 0.067	-0.549 ± 0.084
GAUGAGCAAUAUUACGUAGA	-3.51 ± 0.24	-1.88 ± 0.2
GAUCAGCAAUAUUACGAACA	0.0135 ± 0.15	0.0485 ± 0.15
